Test results published in the PETadex activity labels (doi:10.1093/ismejo/wraf068).

B1: unnamed (protein)
chain: QNSANVQNEISYDVFDYAQHPMGTIWGDPLPDAPALAARGEYMVGVQTLHLSNPNQTDVINTITSKSTVIYDRPLTVEVWYPATLKAGQVQVTVYCDFLGRYDKPGTLVPYTFLGRATRDAVPDTADGPYPLIIISHGYPGSRHLLFYLGENLASKGYVVVSIDHTDSTYKDVGHFASTLVNRSLDQKFVIREILKMPIWKDLCNPNEVGIIGYSMGGYGALRTLGAGLEDSNTIKGFLGEFASMLIAKPSDEGDPLVKAAVLFAPWGGSFGTGPTGLWDKASLAKITVPTLWIAGSQDDIAGYEGIVNLFNSSVNSRRYLLTYDNALHNVAPHPAPSIATEFGDYYRFADPVWDMWRIDSINEHFVTAFFDLYLKGDESAGSYLDMKVENSNEGVYSDQAESSTYWPGFQPRTALGLKFR
B2: unnamed (protein)
chain: MSQYDPFLRGPFPAGVKTYEFEDTSRDRKLPIECWYPATSAYKGKDLDKETQDQFQLMEGFPKARQNAVRDAEIVDDSFPLIIFSHGFAGHRRQTTHFCTHLAGHGYIVASIDHIGSTLPEIMQMVMKVRKEGKLPDIEKFMEDVANDRPVDATFTIDTILAGELGPGIDPDRIGITGHSFGGWTTLVTTKSDTRIKAALPLAPGGGKSPLYGKDNPLTKMLTLDWERTVPTLYLTAEFDTLLPLDGMKDMFDRTPEPKGMVVLLNADHFHFCDGVEVVHDFFRQMGGFVGGMDPGGESEPAPMKKAKPSSELCPGKDAYTFIQGIGLAHMDAHLKGNSDAIELLKGDIAALLADRGVKVEVMQG
B3: unnamed (protein)
chain: VEPLADPAKPGPYPVGVTTMLLVDHSRTDNALAGGPRSLMTEIWYPATDDTRGLPKNRLLDFFNRNTDPGFTVLLKMAFGIDLIQADKDFRNDAVRDARVRDGRFPLVLFSHGNGGIRMQNAYWCEHMASHGYIVMAPDHTGNCAVTFIDGRIFPFNDSEEGREQSRQDRPKDISFLIDAMERMNKGADSRFMGKVDLDHIGVAGHSFGGFTSTWVADAEPRVDAIVPMAGAGAERVNYTCPVMVLVATEDDTLGPERMADLRRYYDESKGPRYLVEFLNAGHFSFTEMYQLKPDFGDGCGTGTRITNGEPLTYIAMDVAFPLIKGYTTAFFGKYLKGLDGYDAYLAANHNPNELVVKSSIPETPQ
B4: unnamed (protein)
chain: VEIHDLHFYNRYNHTVAATIYLPENLNNSPAVIFCGGWLSSREMYSWLPEELAKRGYVVLAIDPSGNGDSYGKLPSFKIFGVRIFSVIDGPYNYINGVWSSDIYDAVTFLTTNYRVSKNVALIGHSMGGFAVTDEALKDGRIKTVIALSDADIYAIKNLKIPVMVITGDFDLIINDNLVAIPGYNAANPPKELIVIKFGTHNGFTNLIWPMPPWNHNVTLYYLSSWLDCFLREDRESCKTLEKPHKYLSTLSESKCNLDGKEKVIKRATGRRKTFTAFLLIFLFLAVLILYLRSKEG
B5: unnamed (protein)
chain: VGTISFDLVDKERLELYGDKIGEERKFKAQMWYPSDDVTEGERAPWIEDGVKVSRMIPKDIGLPGFLIDYSSLIKSNSYKGVPISEKEEKYPIVIISHGWTGYRNIHTDIGELLASHGYIAISIDHTYGSLATVFDNGEVIEVDYGALPNRNETEDFLDYANALVTTYAYDSRFVLDYLEELDDSELIDGRLDLDRIGTLGHSTGGGGVVKIAIEDDRIKAIFGFDPWVEPIEDELLKIGLDVPSLFIRSEQWEEGYNNGYLTTLINHSVIKPMTYQMNGVNHLDFTMLYMYRPILQAFGFAGELDSQVSSKIQLEYVLKFFETYLKDNETNLNDIEKIYDSVIPVNY
B6: unnamed (protein)
chain: MMKDIAITFREGTIAARIYLPPPVHRAGEPHPGIIILHGYLAQQIQFDDLPRRLARKGYVAITFDMPGHGRSSGKRGYIEKDLQIDAATTVLDHLISLPNVDPKRILVIGHSLGGAMGTYLCARDPRPTAFVAIAPAGSLKRIVPLPARMLFGIPYIIHRIKKRMTGNSLYFHSIVTEHIVWADKRKVKFELERELLQHRQPVDNYRTIFLIDPRIPARKVTIPTIMFLASRDRVVPNRISRELFDNIASDDKTLLTIENSGHSIMSDWKKEDFWKMLVPWLETHIPP
B7: unnamed (protein)
chain: MEKPVVFENEGQQIVGMLHAPDGAEGLSPAVVMFHGFTGTKVEPHRLFVKTARRLAEEGFYVLRFDFRGSGDSEGEFREMTLEGEISDAKASLDFILSQPGVDRGRIGVIGLSMGGGVAACLAGRDERVRAVALWAAVSEDPPDLFQELIKTFEERPDKSVDYVDMGGNLVGKGFFEDLRNVKPLQEISGFEGPVLIVHGDNDQTVSVEHAYRFYERLKGKHPLTALHIIRGADHTFNSHEWEREVIEVTVDFMKRA
B8: unnamed (protein)
chain: CNDGSGGLEKTTELEPEDIYPLGDYYDPGKTGPYEVGVKTILLADNSRRTMLGHTKRILLTEVWYPILAPGDKINTVGDMIGQLPEWTPQILESFYGENWEDLLNIQTSAWRDAKTFLPDHPFPVIFFSHGLTALRFQNYTLCEHLASHGFLVIAPDHFDNNVFSNIPGHFTWFNPISTVASEFQRPRDIAFLVKHLQTRQSQTATFFGSYADPGRLGITGHSYGGMTSYAAGEQVAEIDAIAPLNPVILVPTTKFFTKPLLLLVGENDNLASSMFNSCEVAKRNYQTHKGNKAFLFLKNSGHYSATDACMLLPPGFINDDITGCGGAMLNPDIANEIVAAYQVAFFSITLKQDARYQDYLNKNNYPDNLDYEVSWK

Substrate: PET
Assay: Proxy for plastic degradation [HPLC-UV] (mmol)
Conditions: pH 8

Protein	Proxy for plastic degradation (30 °C)	Proxy for plastic degradation (60 °C)
B1	0	0
B2	0	0
B3	0	0
B4	0	0
B5	0	0
B6	0	0
B7	0	0
B8	0	0
